Key:
Znf706 [1] = target: T1, Znf706 (Homo sapiens, UniProt Q9Y5V0 1-76); assay: MST; range over all G4s; less strong; exact value in figure; FP/anisotropy: 20 mM NaPi, 100 mM KCl, 0.05% NaN3, pH 7.4, 25 C (LiCl variant: 20 mM Tris-HCl, 100 mM LiCl, pH 7.4; NaCl variant: 20 mM NaPi, 100 mM NaCl, pH 7.4); NMR: 20 mM NaPi, 100 mM KCl, 7.5% D2O, pH 7.4, 4-50 C; settings: protein: recombinant; tags: none (His6-SUMO cleaved); chain copies: 2; label: 5' 6-FAM; hybrid G4
T1 sequence: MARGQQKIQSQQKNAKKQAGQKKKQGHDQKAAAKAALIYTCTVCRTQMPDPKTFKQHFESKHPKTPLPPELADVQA

Znf706 [2] = target: T1, Znf706; assay: NMR; 100 mM KCl; FP/anisotropy: 20 mM NaPi, 100 mM KCl, 0.05% NaN3, pH 7.4, 25 C (LiCl variant: 20 mM Tris-HCl, 100 mM LiCl, pH 7.4; NaCl variant: 20 mM NaPi, 100 mM NaCl, pH 7.4); NMR: 20 mM NaPi, 100 mM KCl, 7.5% D2O, pH 7.4, 4-50 C; settings: protein: recombinant; tags: none (His6-SUMO cleaved); chain copies: 2; hairpin
Znf706 A2C-AF488 = target: T2, Znf706 A2C-AF488 (Homo sapiens, UniProt Q9Y5V0 1-76, A2C); assay: fluorescence anisotropy; FP/anisotropy: 20 mM NaPi, 100 mM KCl, 0.05% NaN3, pH 7.4, 25 C (LiCl variant: 20 mM Tris-HCl, 100 mM LiCl, pH 7.4; NaCl variant: 20 mM NaPi, 100 mM NaCl, pH 7.4); NMR: 20 mM NaPi, 100 mM KCl, 7.5% D2O, pH 7.4, 4-50 C; settings: protein: recombinant, tags: none (His6-SUMO cleaved), AF488 label
T2 sequence: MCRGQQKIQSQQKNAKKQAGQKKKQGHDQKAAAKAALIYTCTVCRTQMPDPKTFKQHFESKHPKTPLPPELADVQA

Znf706 [3] = target: T1, Znf706; assay: MST; range over all G4s; weakest; exact value in figure; FP/anisotropy: 20 mM NaPi, 100 mM KCl, 0.05% NaN3, pH 7.4, 25 C (LiCl variant: 20 mM Tris-HCl, 100 mM LiCl, pH 7.4; NaCl variant: 20 mM NaPi, 100 mM NaCl, pH 7.4); NMR: 20 mM NaPi, 100 mM KCl, 7.5% D2O, pH 7.4, 4-50 C; settings: protein: recombinant; tags: none (His6-SUMO cleaved); chain copies: 2; label: 5' 6-FAM
Znf706 A2C-MTSL = target: T3, Znf706 A2C-MTSL (Homo sapiens, UniProt Q9Y5V0 1-76, A2C); assay: PRE NMR; 2:1 protein:DNA, 100 mM KCl, 4 C; FP/anisotropy: 20 mM NaPi, 100 mM KCl, 0.05% NaN3, pH 7.4, 25 C (LiCl variant: 20 mM Tris-HCl, 100 mM LiCl, pH 7.4; NaCl variant: 20 mM NaPi, 100 mM NaCl, pH 7.4); NMR: 20 mM NaPi, 100 mM KCl, 7.5% D2O, pH 7.4, 4-50 C; settings: protein: recombinant; tags: none (His6-SUMO cleaved); MTSL spin label; parallel G4
T3 sequence: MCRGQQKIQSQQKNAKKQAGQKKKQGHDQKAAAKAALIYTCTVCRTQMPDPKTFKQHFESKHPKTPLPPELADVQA

Znf706 [4] = target: T1, Znf706; assay: MST; range over all G4s; strong; exact value in figure; FP/anisotropy: 20 mM NaPi, 100 mM KCl, 0.05% NaN3, pH 7.4, 25 C (LiCl variant: 20 mM Tris-HCl, 100 mM LiCl, pH 7.4; NaCl variant: 20 mM NaPi, 100 mM NaCl, pH 7.4); NMR: 20 mM NaPi, 100 mM KCl, 7.5% D2O, pH 7.4, 4-50 C; settings: protein: recombinant; tags: none (His6-SUMO cleaved); chain copies: 2; label: 5' 6-FAM; parallel G4
[5] = target: T4, Znf706 N-terminal peptide (Homo sapiens, UniProt Q9Y5V0 1-35); assay: fluorescence polarization; 100 mM KCl; range over three G4s; FP/anisotropy: 20 mM NaPi, 100 mM KCl, 0.05% NaN3, pH 7.4, 25 C (LiCl variant: 20 mM Tris-HCl, 100 mM LiCl, pH 7.4; NaCl variant: 20 mM NaPi, 100 mM NaCl, pH 7.4); NMR: 20 mM NaPi, 100 mM KCl, 7.5% D2O, pH 7.4, 4-50 C; settings: label: 5' 6-FAM
T4 chain: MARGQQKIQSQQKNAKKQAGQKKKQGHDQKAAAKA

Znf706 [6] = target: T1, Znf706; assay: fluorescence polarization; 100 mM KCl; range over all G4s; strong; exact value in figure; FP/anisotropy: 20 mM NaPi, 100 mM KCl, 0.05% NaN3, pH 7.4, 25 C (LiCl variant: 20 mM Tris-HCl, 100 mM LiCl, pH 7.4; NaCl variant: 20 mM NaPi, 100 mM NaCl, pH 7.4); NMR: 20 mM NaPi, 100 mM KCl, 7.5% D2O, pH 7.4, 4-50 C; settings: protein: recombinant; tags: none (His6-SUMO cleaved); chain copies: 2; label: 5' 6-FAM; parallel G4
Znf706 [7] = target: T1, Znf706; assay: fluorescence polarization; 100 mM KCl; range over all G4s; less strong; exact value in figure; FP/anisotropy: 20 mM NaPi, 100 mM KCl, 0.05% NaN3, pH 7.4, 25 C (LiCl variant: 20 mM Tris-HCl, 100 mM LiCl, pH 7.4; NaCl variant: 20 mM NaPi, 100 mM NaCl, pH 7.4); NMR: 20 mM NaPi, 100 mM KCl, 7.5% D2O, pH 7.4, 4-50 C; settings: protein: recombinant; tags: none (His6-SUMO cleaved); chain copies: 2; label: 5' 6-FAM; hybrid G4
Znf706 [8] = target: T1, Znf706; assay: NMR; competitive titration with Bcl2SH G4; FP/anisotropy: 20 mM NaPi, 100 mM KCl, 0.05% NaN3, pH 7.4, 25 C (LiCl variant: 20 mM Tris-HCl, 100 mM LiCl, pH 7.4; NaCl variant: 20 mM NaPi, 100 mM NaCl, pH 7.4); NMR: 20 mM NaPi, 100 mM KCl, 7.5% D2O, pH 7.4, 4-50 C; settings: protein: recombinant; tags: none (His6-SUMO cleaved); chain copies: 2; blunt
Znf706 [9] = target: T1, Znf706; assay: NMR; 37 C; FP/anisotropy: 20 mM NaPi, 100 mM KCl, 0.05% NaN3, pH 7.4, 25 C (LiCl variant: 20 mM Tris-HCl, 100 mM LiCl, pH 7.4; NaCl variant: 20 mM NaPi, 100 mM NaCl, pH 7.4); NMR: 20 mM NaPi, 100 mM KCl, 7.5% D2O, pH 7.4, 4-50 C; settings: protein: recombinant; tags: none (His6-SUMO cleaved); chain copies: 2; hairpin

Binder: TTGGGTTAGGGTTAGGGTTAGGGA (structured_DNA) [hTel, 6-FAM]
- Kd (Znf706 [1]): ~4.47 µM

Binder: GGAAGGAAGGTTTTCCTTCCTTCC (structured_DNA) [GGA hairpin]
- binding result (Znf706 [2]): no binding

Binder: GGGGCCGGGGCCGGGGCCGGGGCC (structured_DNA) [G4C2 4-repeat]
- binding result (Znf706 A2C-AF488): binds

Binder: GGCGAGGAGGGGCGTGGCCGGC (structured_DNA) [Kit*, 6-FAM]
- Kd (Znf706 [3]): ~4.47 µM

Binder: TAGGGAGGGTAGGGAGGGT (structured_DNA) [cMyc (Pu19_A2A11)]
- binding result (Znf706 A2C-AF488; parallel G4): binds
- binding result (Znf706 A2C-MTSL): binds

Binder: UAGGGUUAGGGUUAGGGUUAGGG (structured_RNA) [TERRA, 6-FAM]
- Kd (Znf706 [4]): ~4.47 µM

Binder: AGGAGGGGGGCGGGA (structured_DNA) [Bcl2SH, 6-FAM]
- Kd ([5]; parallel G4): ~17.2 µM
- Kd (Znf706 [6]): ~4.47 µM

Binder: TAGGGAGGGTAGGGAGGGT (structured_DNA) [cMyc (Pu19_A2A11), 6-FAM]
- Kd ([5]; parallel G4): ~17.2 µM
- Kd (Znf706 [6]): ~4.47 µM

Binder: GGGCGCGGGAGGAAGGGGGCGGG (structured_DNA) [Bcl2WT, 6-FAM]
- Kd ([5]; hybrid G4): ~17.2 µM
- Kd (Znf706 [7]): ~4.47 µM

B1: Bcl2SH duplex (dsDNA)
DNA 1: AGGAGGGGGGCGGGA
DNA 2: TCCCGCCCCCCTCCT
- binding result (Znf706 [8]): no binding

Binder: GGTTGGGGTTGTTTTCAACCCCAACC (structured_DNA) [GGGG hairpin]
- binding result (Znf706 [9]): no binding
